Values quoted from earlier work, collected in article PMC7039207.

Biological target: Vinculin tail D5 (Gallus gallus) (UniProt P12003)

Kd: 100 nM
Substance: Vinculin head D1-D4 (from UniProt P12003)
